Source: the supplement of paper PMC9732359
± gives the uncertainty stated by the source.

Test: protein stability index of a GFP-peptide fusion (yeast GPS) (PSI 1-4); higher = more stable; sorted into four equal gates, so the index is relative within each strain
In short: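 The protein stability index combines read frequencies across sorting gates, each weighted by its gate number and then summed. To obtain those frequencies, a pooled yeast library of GFP fusions to tiled 17-residue yeast protein peptides, on a plasmid also expressing Cherry, was grown to mid-log phase in leucine-free medium. The cells were sorted into four equal gates by GFP/Cherry ratio before plasmid amplification by PCR and Illumina sequencing.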

Sequence	protein stability index (doa10∆)	protein stability index (pdr5∆)	protein stability index (san1∆)	protein stability index (ubr1∆)
SNDVLKPETPKGPIIIS [SIR2]	3 ± 0.11	2.92 ± 0.077	2.78 ± 0.071	2.7 ± 0.077
SNETIGEIQLLFQRQKL [IRR1]	2.61 ± 0.22	2.8 ± 0.17	3.14 ± 0.14	–
SNGEFIPHIFYSLHQIR [CSE2]	2.02 ± 0.07	2.1 ± 0.054	2.12 ± 0.072	2.34 ± 0.057
SNILLNSLTKYPDLKAF [MED1]	1.98 ± 0.14	2.41 ± 0.085	2.24 ± 0.2	1.71 ± 0.094
SNININVNNNNIGQQQV [SWI1]	2.64 ± 0.19	3.01 ± 0.2	3.07 ± 0.074	3.13 ± 0.21
SNKILVYESEMEQCKQR [YIL149C/MLP2]	2.72 ± 0.17	2.95 ± 0.17	2.18 ± 0.28	3.16 ± 0.26
SNKPCMGIVQDTLCGIR [RPO21]	2.45 ± 0.065	1.8 ± 0.067	2.15 ± 0.073	1.77 ± 0.088
SNLKISLVKYPELLDSL [SWI1]	2.76 ± 0.074	2.69 ± 0.058	2.71 ± 0.074	2.96 ± 0.056
SNNTAATADTTHLHEAL [NUT1]	2.37 ± 0.076	3.07 ± 0.084	3.15 ± 0.11	3.02 ± 0.042
SNSSSSPPIIDLFSNNN [MED1]	2.77 ± 0.06	2.82 ± 0.05	2.83 ± 0.042	2.9 ± 0.042
SNTIDELSTDIILKTRQ [SRB7]	2.96 ± 0.076	3.19 ± 0.083	3.18 ± 0.089	3.03 ± 0.063
SNTSTSKMLDAASSQVS [SNF12]	2.51 ± 0.052	2.8 ± 0.042	2.5 ± 0.12	2.83 ± 0.051
SNVLDGNKNQFEPSISR [LRP1]	3 ± 0.086	2.95 ± 0.074	3.12 ± 0.046	3.36 ± 0.091
SPAVKKLLQLAGVEDVY [RPS2]	1.58 ± 0.062	1.76 ± 0.14	–	2.05 ± 0.2
SPEESKARSPGIAKPNA [SIR4]	3.48 ± 0.075	3.42 ± 0.09	3.09 ± 0.091	3.38 ± 0.066
SPLNTTTKILGDKILGN [YML103C/NUP188]	2.33 ± 0.055	2.63 ± 0.049	2.45 ± 0.059	2.12 ± 0.028
SPPIIDLFSNNNYNSRI [MED1]	2.86 ± 0.071	2.92 ± 0.076	2.86 ± 0.062	2.94 ± 0.056
SPQKFETNLQTFLPPLL [ECM29]	3.01 ± 0.071	2.95 ± 0.06	3.2 ± 0.04	2.92 ± 0.049
SPSERIEPLEINIQSFK [BRR2]	2.51 ± 0.064	2.53 ± 0.046	2.55 ± 0.047	1.97 ± 0.032
SPTENGVFDPASYAKYL [RPL22A]	2.98 ± 0.051	3.19 ± 0.061	3.08 ± 0.045	2.88 ± 0.043
SPTPIQRITIPNVCNMK [PRP28]	1.99 ± 0.074	2.16 ± 0.063	2.04 ± 0.068	2.09 ± 0.057
SQAFDIVAALPISEKGL [RPP1]	2.85 ± 0.18	3.02 ± 0.2	2.66 ± 0.18	2.66 ± 0.15
SQEQGMGMDLYKTSKAA [FAS1]	3.05 ± 0.086	3.15 ± 0.07	2.72 ± 0.059	3.3 ± 0.057
SQFINDHILFTKTFIFI [SRB8]	1.56 ± 0.054	1.48 ± 0.056	1.47 ± 0.089	1.41 ± 0.033
SQFLKRVHANLQCISQI [SNF11]	1.17 ± 0.043	1.25 ± 0.041	1.21 ± 0.07	1.2 ± 0.057
SQHKKILEELDFVRNEL [SMC3]	3.35 ± 0.14	3.09 ± 0.096	3.2 ± 0.08	3.01 ± 0.057
SQRAQVVTMSVKSVNDP [RPC37]	2.17 ± 0.073	2.4 ± 0.11	1.89 ± 0.08	1.97 ± 0.1

Sequence	protein stability index (doa10∆)	protein stability index (pdr5∆)	protein stability index (san1∆)	protein stability index (ubr1∆)
SQSSAAAGASVDDKRRN [RPN6]	3.38 ± 0.2	3.41 ± 0.088	3.02 ± 0.087	3.25 ± 0.087
SQVKDSVTETESISQTP [SRP68]	2.92 ± 0.12	3.02 ± 0.11	3.22 ± 0.21	2.93 ± 0.084
SQYFKFKNDFNSFYYTS [RPN9]	2.1 ± 0.075	2.33 ± 0.06	2.51 ± 0.084	2.58 ± 0.056
SRCHLVTKDTKKYSSKN [SRP68]	3.04 ± 0.092	2.8 ± 0.1	2.65 ± 0.11	3.12 ± 0.072
SRGAVSGQKAGLIAARR [RPL2A]	3.4 ± 0.093	3.32 ± 0.083	3.27 ± 0.065	3.25 ± 0.097
SRHFASYANLPGTITHG [FAS1]	2.75 ± 0.059	2.82 ± 0.055	2.57 ± 0.055	2.71 ± 0.039
SRILYKAIRGMVSHKTA [RPL16B]	1.26 ± 0.057	1.2 ± 0.066	1.22 ± 0.16	1.25 ± 0.063
SRIRVKIEGCISQVSSI [RPB7]	1.6 ± 0.1	1.75 ± 0.083	1.64 ± 0.11	1.76 ± 0.074
SRNGDFPRTRFEAQIDS [RPN10]	3.09 ± 0.12	3.28 ± 0.12	3.34 ± 0.077	3.23 ± 0.086
SRPATTTRNGFMEAQGA [FAS2]	2.28 ± 0.049	2.18 ± 0.046	2.48 ± 0.065	2.21 ± 0.039
SRSNFQGKHTKFENDEL [LRP1]	3.28 ± 0.091	2.99 ± 0.085	3.02 ± 0.06	3.22 ± 0.064
SRTAADILLRLCVLWDD [YCG1]	2.23 ± 0.24	–	–	3 ± 0.24
SSAKRSKNTAVSKVQKR [SRP72]	2.25 ± 0.11	2.77 ± 0.11	2.09 ± 0.11	2.32 ± 0.069
SSEQFNVWDWNNWTSAT [GAL11]	3.08 ± 0.1	3.17 ± 0.095	3.14 ± 0.067	3.1 ± 0.083
SSFKKNLLKFITSNHKS [RPN3]	1.46 ± 0.053	1.5 ± 0.049	1.3 ± 0.064	1.83 ± 0.092
SSFRPCPLSQQFCGIKE [BRR2]	2.45 ± 0.073	1.9 ± 0.054	2.38 ± 0.068	2.31 ± 0.037
SSKTRNVLNRIQELEDQ [ITC1]	1.35 ± 0.088	1.16 ± 0.051	–	1.18 ± 0.058
SSLFLDGLEKAAFNGVT [FAS2]	2.3 ± 0.06	2.12 ± 0.062	2.02 ± 0.092	2.88 ± 0.063
SSLFQEKLLETNVSKQN [ECM29]	2.74 ± 0.11	2.55 ± 0.1	2.35 ± 0.065	2.52 ± 0.071
SSLIKAGLDKGISINNM [RPO31]	2.65 ± 0.064	2.7 ± 0.079	2.76 ± 0.066	2.95 ± 0.058
SSLSFGPENALNVYHYF [YJL039C/NUP192]	1.94 ± 0.031	2.11 ± 0.038	2.04 ± 0.05	2.67 ± 0.029
SSLVRSCGEEEFFSTNW [REC8]	3.49 ± 0.23	3.52 ± 0.18	–	3.18 ± 0.2
SSNQSAPVETKKKRFEI [HRT1]	3.18 ± 0.065	3.3 ± 0.079	3.08 ± 0.069	3.27 ± 0.07
SSPTLATGFGAHMANPL [PRE4]	3.26 ± 0.09	3.07 ± 0.097	2.98 ± 0.068	2.65 ± 0.097
SSQFVRLASEPGIISIT [YMR129W/POM152]	2.04 ± 0.094	2.14 ± 0.062	1.99 ± 0.12	1.78 ± 0.04
SSQPLEPLSDTEEPDLA [DSN1]	2.74 ± 0.062	2.69 ± 0.06	3.25 ± 0.037	2.36 ± 0.07
